Data on four proteins can be found in publication PMC9407465.

The nature of one data set: luciferase reporters. The conditions noted are these: glycan lost. A general note: Reporter assays use an easily measured gene product as a stand-in for the process of interest.
A short description of data set [1]: IP and acetylation immunoblot. The following applies: glycan lost; control: wild type Gli2.

B1: human GLI2: S358A (protein)
parent chain: METSASATASEKQEAKSGILEAAGFPDPGKKASPLVVAAAAAAAVAAQGVPQHLLPPFHAPLPIDMRHQEGRYHYEPHSVHGVHGPPALSGSPVISDISLIRLSPHPAGPGESPFNAPHPYVNPHMEHYLRSVHSSPTLSMISAARGLSPADVAQEHLKERGLFGLPAPGTTPSDYYHQMTLVAGHPAPYGDLLMQSGGAASAPHLHDYLNPVDVSRFSSPRVTPRLSRKRALSISPLSDASLDLQRMIRTSPNSLVAYINNSRSSSAASGSYGHLSAGALSPAFTFPHPINPVAYQQILSQQRGLGSAFGHTPPLIQPSPTFLAQQPMALTSINATPTQLSSSSNCLSDTNQNKQSSESAVSSTVNPVAIHKRSKVKTEPEGLRPASPLALTQGQVSGHGSCGCALPLSQEQLADLKEDLDRDDCKQEAEVVIYETNCHWEDCTKEYDTQEQLVHHINNEHIHGEKKEFVCRWQACTREQKPFKAQYMLVVHMRRHTGEKPHKCTFEGCSKAYSRLENLKTHLRSHTGEKPYVCEHEGCNKAFSNASDRAKHQNRTHSNEKPYICKIPGCTKRYTDPSSLRKHVKTVHGPDAHVTKKQRNDVHLRTPLLKENGDSEAGTEPGGPESTEASSTSQAVEDCLHVRAIKTESSGLCQSSPGAQSSCSSEPSPLGSAPNNDSGVEMPGTGPGSLGDLTALDDTPPGADTSALAAPSAGGLQLRKHMTTMHRFEQLKKEKLKSLKDSCSWAGPTPHTRNTKLPPLPGSGSILENFSGSGGGGPAGLLPNPRLSELSASEVTMLSQLQERRDSSTSTVSSAYTVSRRSSGISPYFSSRRSSEASPLGAGRPHNASSADSYDPISTDASRRSSEASQCSGGSGLLNLTPAQQYSLRAKYAAATGGPPPTPLPGLERMSLRTRLALLDAPERTLPAGCPRPLGPRRGSDGPTYGHGHAGAAPAFPHEAPGGGARRASDPVRRPDALSLPRVQRFHSTHNVNPGPLPPCADRRGLRLQSHPSTDGGLARGAYSPRPPSISENVAMEAVAAGVDGAGPEADLGLPEDDLVLPDDVVQYIKAHASGALDEGTGQVYPTESTGFSDNPRLPSPGLHGQRRMVAADSNVGPSAPMLGGCQLGFGAPSSLNKNNMPVQWNEVSSGTVDALASQVKPPPFPQGNLAVVQQKPAFGQYPGYSPQGLQASPGGLDSTQPHLQPRSGAPSQGIPRVNYMQQLRQPVAGSQCPGMTTTMSPHACYGQVHPQLSPSTISGALNQFPQSCSNMPAKPGHLGHPQQTEVAPDPTTMGNRHRELGVPDSALAGVPPPHPVQSYPQQSHHLAASMSQEGYHQVPSLLPARQPGFMEPQTGPMGVATAGFGLVQPRPPLEPSPTGRHRGVRAVQQQLAYARATGHAMAAMPSSQETAEAVPKGAMGNMGSVPPQPPPQDAGGAPDHSMLYYYGQIHMYEQDGGLENLGSCQVMRSQPPQPQACQDSIQPQPLPSPGVNQVSSTVDSQLLEAPQIDFDAIMDDGDHSSLFSGALSPSLLHSLSQNSSRLTTPRNSLTLPSIPAGISNMAVGDMSSMLTSLAEESKFLNMMT
On to B1, for which the “other: transcriptional activity” value in the data set “luciferase reporters” (control: wild type GLI2) is given as “decreases”.

B2: human GLI2: S358D (protein)
parent chain: METSASATASEKQEAKSGILEAAGFPDPGKKASPLVVAAAAAAAVAAQGVPQHLLPPFHAPLPIDMRHQEGRYHYEPHSVHGVHGPPALSGSPVISDISLIRLSPHPAGPGESPFNAPHPYVNPHMEHYLRSVHSSPTLSMISAARGLSPADVAQEHLKERGLFGLPAPGTTPSDYYHQMTLVAGHPAPYGDLLMQSGGAASAPHLHDYLNPVDVSRFSSPRVTPRLSRKRALSISPLSDASLDLQRMIRTSPNSLVAYINNSRSSSAASGSYGHLSAGALSPAFTFPHPINPVAYQQILSQQRGLGSAFGHTPPLIQPSPTFLAQQPMALTSINATPTQLSSSSNCLSDTNQNKQSSESAVSSTVNPVAIHKRSKVKTEPEGLRPASPLALTQGQVSGHGSCGCALPLSQEQLADLKEDLDRDDCKQEAEVVIYETNCHWEDCTKEYDTQEQLVHHINNEHIHGEKKEFVCRWQACTREQKPFKAQYMLVVHMRRHTGEKPHKCTFEGCSKAYSRLENLKTHLRSHTGEKPYVCEHEGCNKAFSNASDRAKHQNRTHSNEKPYICKIPGCTKRYTDPSSLRKHVKTVHGPDAHVTKKQRNDVHLRTPLLKENGDSEAGTEPGGPESTEASSTSQAVEDCLHVRAIKTESSGLCQSSPGAQSSCSSEPSPLGSAPNNDSGVEMPGTGPGSLGDLTALDDTPPGADTSALAAPSAGGLQLRKHMTTMHRFEQLKKEKLKSLKDSCSWAGPTPHTRNTKLPPLPGSGSILENFSGSGGGGPAGLLPNPRLSELSASEVTMLSQLQERRDSSTSTVSSAYTVSRRSSGISPYFSSRRSSEASPLGAGRPHNASSADSYDPISTDASRRSSEASQCSGGSGLLNLTPAQQYSLRAKYAAATGGPPPTPLPGLERMSLRTRLALLDAPERTLPAGCPRPLGPRRGSDGPTYGHGHAGAAPAFPHEAPGGGARRASDPVRRPDALSLPRVQRFHSTHNVNPGPLPPCADRRGLRLQSHPSTDGGLARGAYSPRPPSISENVAMEAVAAGVDGAGPEADLGLPEDDLVLPDDVVQYIKAHASGALDEGTGQVYPTESTGFSDNPRLPSPGLHGQRRMVAADSNVGPSAPMLGGCQLGFGAPSSLNKNNMPVQWNEVSSGTVDALASQVKPPPFPQGNLAVVQQKPAFGQYPGYSPQGLQASPGGLDSTQPHLQPRSGAPSQGIPRVNYMQQLRQPVAGSQCPGMTTTMSPHACYGQVHPQLSPSTISGALNQFPQSCSNMPAKPGHLGHPQQTEVAPDPTTMGNRHRELGVPDSALAGVPPPHPVQSYPQQSHHLAASMSQEGYHQVPSLLPARQPGFMEPQTGPMGVATAGFGLVQPRPPLEPSPTGRHRGVRAVQQQLAYARATGHAMAAMPSSQETAEAVPKGAMGNMGSVPPQPPPQDAGGAPDHSMLYYYGQIHMYEQDGGLENLGSCQVMRSQPPQPQACQDSIQPQPLPSPGVNQVSSTVDSQLLEAPQIDFDAIMDDGDHSSLFSGALSPSLLHSLSQNSSRLTTPRNSLTLPSIPAGISNMAVGDMSSMLTSLAEESKFLNMMT
For B2, in “luciferase reporters” (control: wild type GLI2), the “other: transcriptional activity” value is reported as “decreases”.

B3: Gli2 (GLI family zinc finger 2): S355A (protein)
parent chain: METSAPAPALEKKEAKSGLLEDSSFPDPGKKACPLAVAAAVAAHGVPQQLLPAFHAPLPIDMRHQEGRYHYDPHSVHSVHGPPTLSGSPVISDISLIRLSPHPAGPGESPFSAHHPYVNPHMEHYLRSVHSSPTLSMISAARGLSPADVAHEHLKERGLFSLAAPGTNPSDYYHQMTLMASHPTPYGDLLMQSGGAASAPHLHDYLNPVDASRFSSPRVTPRLSRKRALSISPLSDASLDLQRMIRTSPNSLVAYINNSRSSSAASGSYGHLSAGALSPAFTFPHPINPVAYQQILSQQRGLGSAFGHTPPLIQPSPTFLAQQPMTLTSISTMPTQLSSSSSNCLNDANQNKQNSESAVSSTVNPITIHKRSKVKTEAEGLRPASPLGLTQEQLADLKEDLDRDDCKQEAEVVIYETNCHWADCTKEYDTQEQLVHHINNEHIHGEKKEFVCRWQACTREQKPFKAQYMLVVHMRRHTGEKPHKCTFEGCSKAYSRLENLKTHLRSHTGEKPYVCEHEGCNKAFSNASDRAKHQNRTHSNEKPYICKIPGCTKRYTDPSSLRKHVKTVHGPDAHVTKKQRNDVHVRAPLLKENGDNEASAEPGGRGPEESVEASSTSHTVEDCLHIKAIKTESSGLCQSSPGAQSSCSSEPSPLGSAPNNDSGMEMPGTGPGSLGDLTALADTCPGADTSALAAPSTGGLQLRKHMSTVHRFEQLKREKLKSLKDSCSWAGPAPHTRNTKLPPLPVNGSVLENFNNTGGGGPAGLLPSQRLPELTEVTMLSQLQERRDSSTSTMSSAYTVSRRSSGISPYFSSRRSSEASPLGGLRPHNASSADSYDPISTDASRRSSEASQCSGGGPGLLNLTPAQQYNLRAKYAAATGGPPPTPLPGLDRVSLRTRLALLDAPERALPGACPHPLGPRRGSDGPTYSHGHGHGYAGAAPAFPHEGPNSSTRRASDPVRRPDPLILPRVQRFHSTHNMNPGSLPPCADRRGLHVQSHPSVDSNLTRNAYSPRPPSINENVVMEAVAAGVDGPGLECDLGLVEDELVLPDDVVQYIKAHTGGTLDDGIRQGYPTEGTGFPENSKLPSPGLQGHRRLAAADSNMGPSAPGLGGCQLSYSPSSNLNKSNMPVQWNEVSSGTVDALPTQVKPPPFPHSNLAVVQQKPAFGQYPGYNPQSVQSSSGGLDSTQPHLQLRGAPSASRGSYTQQPRQPAAGSQCLGMSAAMSPQASYSQAHPQLSPNIVSGSLNQFSPSCSNMAAKPSHLGLPQQMEVVPNATIMNGHQREHGVPNSSLAAVSQPHPVLSYPQQDSYQQGSNLLSSHQPGFMESQQNAGFGLMQPRPPLEPNTASRHRGVRSGQQQLYARTTGQAMVTSANQETAEAMPKGPAGTMVSLAPQPSQDTGRAQDQNTLYYYGQIHMYEQNGGCPAVQPQPPQPQACSDSIQPEPLPSPGVNQVSSTVDSQLLEPPQIDFDAIMDDGDHSSLFSGALSPTLLHNLSQNSSRLTTPRNSLTLPSIPAGISNMAVGDMSSMLTSLAEESKFLNMMT
Regarding B3, in the data set “luciferase reporters” (control: wild type Gli2), the “other: transcriptional activity” value is given as “decreases”. Besides, the “other: Gli2 acetylation” value in data set [1] is reported as “increases”.

B4: Gli2 (GLI family zinc finger 2): S355D (protein)
parent chain: METSAPAPALEKKEAKSGLLEDSSFPDPGKKACPLAVAAAVAAHGVPQQLLPAFHAPLPIDMRHQEGRYHYDPHSVHSVHGPPTLSGSPVISDISLIRLSPHPAGPGESPFSAHHPYVNPHMEHYLRSVHSSPTLSMISAARGLSPADVAHEHLKERGLFSLAAPGTNPSDYYHQMTLMASHPTPYGDLLMQSGGAASAPHLHDYLNPVDASRFSSPRVTPRLSRKRALSISPLSDASLDLQRMIRTSPNSLVAYINNSRSSSAASGSYGHLSAGALSPAFTFPHPINPVAYQQILSQQRGLGSAFGHTPPLIQPSPTFLAQQPMTLTSISTMPTQLSSSSSNCLNDANQNKQNSESAVSSTVNPITIHKRSKVKTEAEGLRPASPLGLTQEQLADLKEDLDRDDCKQEAEVVIYETNCHWADCTKEYDTQEQLVHHINNEHIHGEKKEFVCRWQACTREQKPFKAQYMLVVHMRRHTGEKPHKCTFEGCSKAYSRLENLKTHLRSHTGEKPYVCEHEGCNKAFSNASDRAKHQNRTHSNEKPYICKIPGCTKRYTDPSSLRKHVKTVHGPDAHVTKKQRNDVHVRAPLLKENGDNEASAEPGGRGPEESVEASSTSHTVEDCLHIKAIKTESSGLCQSSPGAQSSCSSEPSPLGSAPNNDSGMEMPGTGPGSLGDLTALADTCPGADTSALAAPSTGGLQLRKHMSTVHRFEQLKREKLKSLKDSCSWAGPAPHTRNTKLPPLPVNGSVLENFNNTGGGGPAGLLPSQRLPELTEVTMLSQLQERRDSSTSTMSSAYTVSRRSSGISPYFSSRRSSEASPLGGLRPHNASSADSYDPISTDASRRSSEASQCSGGGPGLLNLTPAQQYNLRAKYAAATGGPPPTPLPGLDRVSLRTRLALLDAPERALPGACPHPLGPRRGSDGPTYSHGHGHGYAGAAPAFPHEGPNSSTRRASDPVRRPDPLILPRVQRFHSTHNMNPGSLPPCADRRGLHVQSHPSVDSNLTRNAYSPRPPSINENVVMEAVAAGVDGPGLECDLGLVEDELVLPDDVVQYIKAHTGGTLDDGIRQGYPTEGTGFPENSKLPSPGLQGHRRLAAADSNMGPSAPGLGGCQLSYSPSSNLNKSNMPVQWNEVSSGTVDALPTQVKPPPFPHSNLAVVQQKPAFGQYPGYNPQSVQSSSGGLDSTQPHLQLRGAPSASRGSYTQQPRQPAAGSQCLGMSAAMSPQASYSQAHPQLSPNIVSGSLNQFSPSCSNMAAKPSHLGLPQQMEVVPNATIMNGHQREHGVPNSSLAAVSQPHPVLSYPQQDSYQQGSNLLSSHQPGFMESQQNAGFGLMQPRPPLEPNTASRHRGVRSGQQQLYARTTGQAMVTSANQETAEAMPKGPAGTMVSLAPQPSQDTGRAQDQNTLYYYGQIHMYEQNGGCPAVQPQPPQPQACSDSIQPEPLPSPGVNQVSSTVDSQLLEPPQIDFDAIMDDGDHSSLFSGALSPTLLHNLSQNSSRLTTPRNSLTLPSIPAGISNMAVGDMSSMLTSLAEESKFLNMMT
B4: in the data set “luciferase reporters” (control: wild type Gli2), the “other: transcriptional activity” value is reported as “decreases”.
